Results: patent CN114984227A (BIO THERA SOLUTIONS LTD, dated 2022)

T1: 人TIGIT (TIGIT-Jurkat细胞表面) (human, UniProt Q495A1 22-244)
T1 construct: whole, on cells
T1 sequence (looked up): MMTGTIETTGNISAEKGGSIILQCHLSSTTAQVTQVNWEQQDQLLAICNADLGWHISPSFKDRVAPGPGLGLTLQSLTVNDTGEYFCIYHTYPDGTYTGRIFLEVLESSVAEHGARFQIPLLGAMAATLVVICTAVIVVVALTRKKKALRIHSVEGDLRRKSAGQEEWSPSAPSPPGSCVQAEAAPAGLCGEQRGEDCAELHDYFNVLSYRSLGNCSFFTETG

B1: 参照抗体Tiragolumab (antibody, V domains shown)
VH: EVQLQQSGPGLVKPSQTLSLTCAISGDSVSSNSAAWNWIRQSPSRGLEWLGKTYYRFKWYSDYAVSVKGRITINPDTSKNQFSLQLNSVTPEDTAVFYCTRESTTYDLLAGPFDYWGQGTLVTVSS
VL: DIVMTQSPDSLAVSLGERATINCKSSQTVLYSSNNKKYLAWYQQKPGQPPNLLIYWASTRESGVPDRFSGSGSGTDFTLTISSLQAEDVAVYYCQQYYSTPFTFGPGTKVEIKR
B2: 抗体h10D8OF (antibody, human IgG1, kappa, V domains shown)
VH: QVQLVESGGGVVQPGRSLRLDCKASGFTFSSYGMSWVRQAPGKGLELVATINSNGGSTYYPDSVKGRFTISRDNSKNTLFLQMNSLRAEDTAVYYCARLGTGTLGFAYWGQGTLVTVSS
VL: EIVMTQSPATLSLSPGERATLSCKASQDVKTAVSWYQQKPGQAPRLLIYWASTRATGIPARFSGSGSGTDYTLTISSLEPEDFAVYYCQQHYSTPWTFGQGTKVEIKR
notes: also called 抗TIGIT抗体
B3: 抗体h10D8OFKF (antibody, human IgG1, kappa, V domains shown)
VH: B2 VH
VL: B2 VL
notes: also called 抗TIGIT抗体

Molecular target: T1, 人TIGIT (TIGIT-Jurkat细胞表面)
Experiment: flow cytometry competition: blocking of PVR-Fc-bio (12.5 nM) binding to TIGIT-Jurkat cells

IC50 | Binder
2.82 nM | B1
0.441 nM | B2
0.742 nM | B3
